Experimental findings from IntAct's records for PubMed 21743455 are described below.

Sequences and labels used below:
B1: Wnt inhibitory factor 1 (Homo sapiens), Q9Y5W5 (parent)
chain: MARRSAFPAAALWLWSILLCLLALRAEAGPPQEESLYLWIDAHQARVLIGFEEDILIVSEGKMAPFTHDFRKAQQRMPAIPVNIHSMNFTWQAAGQAEYFYEFLSLRSLDKGIMADPTVNVPLLGTVPHKASVVQVGFPCLGKQDGVAAFEVDVIVMNSEGNTILQTPQNAIFFKTCQQAECPGGCRNGGFCNERRICECPDGFHGPHCEKALCTPRCMNGGLCVTPGFCICPPGFYGVNCDKANCSTTCFNGGTCFYPGKCICPPGLEGEQCEISKCPQPCRNGGKCIGKSKCKCSKGYQGDLCSKPVCEPGCGAHGTCHEPNKCQCQEGWHGRHCNKRYEASLIHALRPAGAQLRQHTPSLKKAEERRDPPESNYIW

Variants of B1 are the subject of this test. As to conditions: with wnt3a_mouse Wnt3a.
As to M77W, the “effect of a mutation on the interaction” value is “decreasing interaction”.
